Numbering of substitutions follows the chain as printed. Each block holds one binder with its values, some of them ahead of it.
Legend:
bovine serum albumin = target: T1, bovine serum albumin (bovine, UniProt P02769 25-607); assay: ELISA at one antibody amount, wells coated with antigen-DDR2 or BSA, OD450
T1 construct: also called BSA; negative control protein
Procedure: The Flag tag was fused into the nano-antibody gene coding sequence and five DDR2 antibodies with Flag tag were expressed and purified: TAT, 1A5, 1A12, 1B2, 1B3; Then, the extracellular segment of DDR2 antigen was used to coat at 100 ng/well→goat serum was used to block overnight→PBS was used to wash three times, anti-DDR2 (five purified DDR2 antibodies, all comprising Flag tag) 200 ng/well, 37° C. 1 h→Anti Flag (Sigma, F1804-200UG, 1 mg/ml) 1:2500, 37° C. 1 h→G&M (HRP) 1:5000, 37° C. 30 min (horseradish peroxidase labeled anti Flag antibody amplification signal, TMB staining)→TMB staining at 37° C. 30 min→1M HCl for termination; A blank control was prepared simultaneously.
+[0199]5 nano-antibodies that were expressed and purified and identified as correct in the previous step, along with the extracellular segment of DDR2 antigen and the negative control protein bovine serum albumin (BSA), were subjected to ELISA validation.

mouse DDR2 in tissue = target: T2, mouse DDR2 in tissue (mouse, UniProt Q62371 22-854); assay: near-infrared imaging of mouse lung tissue slices stained with ICG labeled 1A12 (untreated, bleomycin, mTGF-β)
T2 construct: whole, on cells; Endogenous protein in tissue slices, not a purified protein; also called DDR2 in mouse lung tissue slices; DDR2 in the mouse retina
T2 sequence (looked up): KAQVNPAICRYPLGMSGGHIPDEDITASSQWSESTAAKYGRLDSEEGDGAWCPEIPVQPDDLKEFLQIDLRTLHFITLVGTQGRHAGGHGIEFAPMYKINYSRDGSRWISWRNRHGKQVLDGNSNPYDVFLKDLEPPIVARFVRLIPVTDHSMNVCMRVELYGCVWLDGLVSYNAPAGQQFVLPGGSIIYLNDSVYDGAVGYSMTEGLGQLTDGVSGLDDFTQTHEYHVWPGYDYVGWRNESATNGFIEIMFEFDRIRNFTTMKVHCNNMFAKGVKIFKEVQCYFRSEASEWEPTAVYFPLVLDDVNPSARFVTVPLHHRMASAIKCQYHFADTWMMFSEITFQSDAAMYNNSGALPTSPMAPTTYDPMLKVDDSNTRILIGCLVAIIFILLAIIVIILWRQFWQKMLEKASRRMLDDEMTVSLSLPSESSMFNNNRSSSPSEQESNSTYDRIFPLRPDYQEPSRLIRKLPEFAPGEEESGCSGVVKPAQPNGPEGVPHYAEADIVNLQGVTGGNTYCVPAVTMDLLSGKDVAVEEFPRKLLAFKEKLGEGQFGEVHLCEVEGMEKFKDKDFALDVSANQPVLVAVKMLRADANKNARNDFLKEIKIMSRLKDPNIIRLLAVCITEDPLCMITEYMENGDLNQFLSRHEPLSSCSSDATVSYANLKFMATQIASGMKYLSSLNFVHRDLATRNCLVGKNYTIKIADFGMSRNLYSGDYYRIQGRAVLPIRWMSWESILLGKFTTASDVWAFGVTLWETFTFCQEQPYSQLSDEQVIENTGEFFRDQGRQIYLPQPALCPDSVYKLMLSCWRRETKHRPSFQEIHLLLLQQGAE
Procedure: Fresh lung tissue from normal mice was cut into a thickness of […]. One was used as an untreated control, one was induced with bleomycin, and the other one was induced with mTGF-β cytokines, both for 72 hours (both treatment groups were able to promote DDR2 expression). Then, each group was stained with ICG labeled DDR2 nano-antibody 1A12 (1 ug per sample) for 30 minutes, followed by washing multiple times with PBS to remove non-specific staining. Then, imaging was performed using a live imaging device.

[1] = target: T3, human DDR2 in lung tissue (human, UniProt Q16832 22-855); assay: imaging of lung tissue slices of IPF patients and normal donors stained with ICG labeled 1A12
T3 construct: whole, on cells; Endogenous protein in tissue slices; also called DDR2 in lung tissue of IPF patients
T3 sequence (looked up): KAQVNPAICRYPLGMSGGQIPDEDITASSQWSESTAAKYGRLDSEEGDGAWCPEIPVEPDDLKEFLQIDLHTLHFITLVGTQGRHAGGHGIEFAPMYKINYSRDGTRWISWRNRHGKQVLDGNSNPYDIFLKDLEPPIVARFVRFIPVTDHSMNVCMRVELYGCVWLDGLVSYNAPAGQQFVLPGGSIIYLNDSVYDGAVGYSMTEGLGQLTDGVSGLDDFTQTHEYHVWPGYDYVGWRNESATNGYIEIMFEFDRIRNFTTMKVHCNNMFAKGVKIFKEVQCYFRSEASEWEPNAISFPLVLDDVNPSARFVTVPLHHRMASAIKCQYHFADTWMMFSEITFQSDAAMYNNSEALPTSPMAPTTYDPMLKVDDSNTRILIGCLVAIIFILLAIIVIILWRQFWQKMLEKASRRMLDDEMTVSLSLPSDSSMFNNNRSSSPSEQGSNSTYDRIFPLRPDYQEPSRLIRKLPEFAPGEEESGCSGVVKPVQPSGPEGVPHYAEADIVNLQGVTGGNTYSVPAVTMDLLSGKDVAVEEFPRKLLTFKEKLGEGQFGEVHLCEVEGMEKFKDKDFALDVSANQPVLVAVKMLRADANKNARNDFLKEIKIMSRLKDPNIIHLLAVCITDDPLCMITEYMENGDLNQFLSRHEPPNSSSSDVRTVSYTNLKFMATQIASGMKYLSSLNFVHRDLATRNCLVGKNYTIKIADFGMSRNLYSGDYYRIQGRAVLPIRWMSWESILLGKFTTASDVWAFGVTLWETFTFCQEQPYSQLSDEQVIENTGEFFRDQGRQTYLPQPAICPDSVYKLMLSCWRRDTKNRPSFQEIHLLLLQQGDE
Procedure: Lung tissues from normal donors and patients with idiopathic pulmonary fibrosis (IPF) were cut to a thickness of 600 μm in vitro, with high expression of DDR2 in IPF patients' lung tissues and low or no expression of DDR2 in normal donors' lungs. The Normal group was used as control, and lung tissue slices from IPF patients were used as the experimental group. After staining with ICG labeled DDR2 nano-antibody 1A12, in vitro live imaging was performed.

[2] = target: T4, human DDR2 extracellular segment (human, UniProt Q16832 22-399); assay: ELISA, plate coated with DDR2 extracellular segment, Flag-tagged nano-antibody titrated, anti-Flag then HRP secondary, TMB, OD450; design: unit not given here
T4 construct: range 22-399; In BLI it carried a His tag (printed 'Hig tag') and was captured on Ni-NTA; also called extracellular segment of DDR2 antigen; extracellular segment protein of DDR2 antigen
T4 sequence (looked up): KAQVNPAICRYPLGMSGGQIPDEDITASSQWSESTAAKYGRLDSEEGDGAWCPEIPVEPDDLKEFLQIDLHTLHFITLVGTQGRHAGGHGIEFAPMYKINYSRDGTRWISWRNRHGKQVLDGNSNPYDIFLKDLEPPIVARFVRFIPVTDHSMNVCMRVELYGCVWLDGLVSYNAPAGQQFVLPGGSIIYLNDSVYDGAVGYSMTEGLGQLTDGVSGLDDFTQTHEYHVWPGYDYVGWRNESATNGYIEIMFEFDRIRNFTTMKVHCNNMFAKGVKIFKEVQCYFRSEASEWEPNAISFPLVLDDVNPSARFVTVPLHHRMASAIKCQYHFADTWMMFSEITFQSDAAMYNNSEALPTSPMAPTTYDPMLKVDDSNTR

[3] = target: T5, DDR2 antigen overexpressed on cells (UniProt Q16832); assay: flow cytometry on 293T DDR2 cells, anti-His-488 secondary; control on 293T DDR2 R3 0.94%; on parental 293T cells 1A1-1A12 R3 0.44% and control R3 0.46%
T5 sequence (looked up): T3 sequence (looked up)

T1 sequence (P02769 25-607 limits assumed): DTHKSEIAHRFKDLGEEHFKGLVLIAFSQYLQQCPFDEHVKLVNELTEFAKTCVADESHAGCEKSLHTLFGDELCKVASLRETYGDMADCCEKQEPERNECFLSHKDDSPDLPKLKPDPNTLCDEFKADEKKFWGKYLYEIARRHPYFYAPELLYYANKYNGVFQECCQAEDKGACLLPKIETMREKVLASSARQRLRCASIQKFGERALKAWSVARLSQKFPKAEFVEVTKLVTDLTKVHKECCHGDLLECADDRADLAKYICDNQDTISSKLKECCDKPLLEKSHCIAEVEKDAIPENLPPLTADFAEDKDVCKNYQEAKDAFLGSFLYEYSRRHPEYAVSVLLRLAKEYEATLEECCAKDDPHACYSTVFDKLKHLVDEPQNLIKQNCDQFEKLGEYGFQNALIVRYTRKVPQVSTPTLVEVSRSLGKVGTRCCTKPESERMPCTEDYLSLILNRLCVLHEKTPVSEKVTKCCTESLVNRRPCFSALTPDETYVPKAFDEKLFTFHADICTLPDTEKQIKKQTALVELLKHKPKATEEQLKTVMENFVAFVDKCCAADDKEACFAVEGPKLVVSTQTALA

B1: anti-DDR2 nano-antibody 1B2 (VHH)
VHH: EVQLVESGGGLVQPGGSLRLSCAASGYIFSIYAMGWFRQAPGKGRELVARISWGDGSTWYPDSVEGRFTISRDNAKRMVYLQMNSLRAEDTAVYYCAAAIKGRGVVTQLGYNYWGQGTQVTVSS
notes: also called 1B2-VHH
binding result (bovine serum albumin): no binding

B2: ICG labeled DDR2 nano-antibody 1A12 (VHH)
VHH: EVQLVESGGGLVQPGGSLRLSCAASGYILSPNVMGWFRQAPGKGRELVAAISWGDGRTYYPDSVEGRFTISRDNAKRMVYLQMNSLRAEDTAVYYCAASRKGYPSTRSDPYNYWGQGTQVTVSS
modifications: indocyanine green (ICG) coupled with ICG-NHS; sites not stated
notes: also called ICG labeled 1A12 nano-antibody; Nb-DDR2 labeled with indocyanine green
binding result (mouse DDR2 in tissue): binds
binding result [1]: binds

B3: anti-DDR2 nano-antibody 1A1 (VHH)
VHH: B2 VHH with Y27R, L29F, P31I, S52N, W53T, G54R, D55G, R57S, N112D
notes: Expressed in E. coli BL21(DE3); also called 1A1-VHH
binding result (bovine serum albumin): no binding

B5: anti-DDR2 nano-antibody 1A5 (VHH)
VHH: EVQLVESGGGLVQPGGSLRLSCAASGITLSLYIMGWFRQAPGKGRELVAAISRTGGSTYYPDSVEGRFTISRDNAKRMVYLQMNSLRAEDTAVYYCAADFYGNATLGYNYWGQGTQVTVSS
notes: also called 1A5-VHH
binding result (bovine serum albumin): no binding

B7: heterodimeric anti-DDR2 nano-antibody 1A1-1A12 (bispecific antibody, part only; not given: His tag, not shown: small tags and cut ends)
chain, part: EVQLVESGGGLVQPGGSLRLSCAASGYILSPNVMGWFRQAPGKGRELVAAISWGDGRTYYPDSVEGRFTISRDNAKRMVYLQMNSLRAEDTAVYYCAASRKGYPSTRSDPYNYWGQGTQVTVSSGGGSGGGSGGGSEVQLVESGGGLVQPGGSLRLSCAASGRIFSINVMGWFRQAPGKGRELVAAINTRGGSTYYPDSVEGRFTISRDNAKRMVYLQMNSLRAEDTAVYYCAASRKGYPSTRSDPYDYWGQGTQVTVSS
R3, percent of cells in the FITC-H positive gate [3]: 33%

Second part, the binder after the results:

binding result (bovine serum albumin): no binding
EC50 (read off the curve) [2]: ~1
B4: anti-DDR2 nano-antibody 1A12 (VHH)
VHH: B2 VHH
notes: also called 1A12-VHH; DDR2 antibody 1A12

binding result (bovine serum albumin): no binding
B6: anti-DDR2 nano-antibody 1B3 (VHH)
VHH: B5 VHH with I27D, L29F, L31Y, I33V, F100P, G102I, N103S, A104G
notes: also called 1B3-VHH

— US20260167727A1 (FIBRO BIOMED TECHNOLOGY GUANGZHOU, published 2026)
